This data set in a line: yeast display, Sf9 membrane polyspecificity reagent, FACS + sequencing; frameworks hold sequencing errors. The procedure, abridged: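 Nanobodies from a synthetic yeast display library (Saccharomyces cerevisiae BJ5465), induced 36–48 hours with galactose, were stained 1 hour at 4 °C with 10% biotinylated, detergent-solubilized Sf9 membrane reagent, enriched on streptavidin microbeads, then FACS-sorted. Anti-HA (expression) and streptavidin (reagent binding) fluorescence set low and high (top ~1%) gates. Polyreactivity labels come from the gate of origin. Genes were colony-PCR amplified, MiSeq 2 × 250 sequenced and filtered by CDR length.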
With “QVQLVESGGGLVQAGGSLRLSCAASGSTLAPYVMGWYIQAPGKERELVAVISTRTGRTYYAVSVKGRFTISRDNAKNTVYLQMNSLKPEDTAVYYCAAAYGWSWYRYDYWGQGTQVTVSS”, the “polyreactivity (PSR sort gate)” value is “high polyreactivity”.
The value for “QVQLVESGGGLVQAGGSLRLSCAASGSTLARYAMGWYRQAPGKERELVAAISSDGRTYYADSVKGRYTISRDNAKNTVYLQIYSLKPEDTAVYYCATLRPYAYPQYDSWGQGTQVTVSS” was “high polyreactivity”; that for “QVQLVESGGGLVQAGGSLRLSCAASGSTLASYAMGWYRQAPGKERELVAVIDSGGSTYYADSVKGRFTISRDNAKNTVYLQMNSLKPEDTAVYYCAAGWEFSGVLTLFGYWGQGTQVTVSS” was “low polyreactivity”; that for “QVQLVESGGGLVQAGGSLRLSCAASGSTLASYARGWYRQAPGKERELVAAISSSGGSTYYADSVKGRFTISRDNAKNTVYLQMNSLKPEDSEVYYCAARTRTRYGIDYYWGQGTQVTVSS” was “high polyreactivity”.
With “QVQLVESGGGLVQAGGSLRLSCAASGSTLATYTMGWYRQAPGKERELVAAISFGGSTYYADSVKGRFTISRDNAKNTVYLQMNRLKPEDTAVYYCAVYGDSYWGAYYYSDGYWGQGTQVTVSS”, the “polyreactivity (PSR sort gate)” value is on record as “low polyreactivity”.
In the case of “QVQLVESGGGLVQAGGSLRLSCAASGSTLAVYAMGWYRQAPGKERELDAAISYSGGGTYYADSVKGRFTISRDNAKNTVYLQMNSLKPEDTAVYYCATDLYYEYYTWDYYWGQGTQVTVSS” it was “low polyreactivity”; in that of “QVQLVESGGGLVQAGGSLRLSCAASGSTLAVYAMLWYRQAPGKERELVAAISYSGGGTYYADSVKGRFTISRDNAKNTVYLQMNSLKPEDTAVYYCATDLYYEYFTWDYYWGQGTQVTVSS”, “low polyreactivity”.
For “QVQLVESGGGLVQAGGSLRLSCAASGSTLDFNAMGWYRQAPGKERELVAGISRDGGSTYYADSVKGRFTISRDNAKNTVYLQMNSLKPEDTAVYYCAVDFLDWYQDYYITYDYWGQGTQVTVSS”, the “polyreactivity (PSR sort gate)” value was “low polyreactivity”.
Turning to “QVQLVESGGGLVQAGGSLRLSCAASGSTLDFNAMGWYRQAPGKERELVATITYGVGKNYADSVKGRFTISRDNAKNTVYLQMNSLKPEDTAVYYCAANNWDYARYTYWYYSFLAYDYWGQGTQVTVSS”, the “polyreactivity (PSR sort gate)” value is given as “low polyreactivity”.
As for “QVQLVESGGGLVQAGGSLRLSCAASGSTLDIYAMGWYRQAPGKERELVAAITSGGSTNYADSVKGRFTISRDNAKNTVYLQMNSLKPEDTAVYYCNARYFRGYDYWGQGTQVTVSS”, the “polyreactivity (PSR sort gate)” value is “high polyreactivity”.
Regarding “QVQLVESGGGLVQAGGSLRLSCAASGSTLDRNTMGWYRAAPGKESELVAAITWSGGRTYYADSVKGRFTISRDNANNSVYLQLNSLKPEDTAVYYCNKDYWKRPVDEYDYWGQGTQVTVSS”, the “polyreactivity (PSR sort gate)” value was “high polyreactivity”.
Regarding “QVQLVESGGGLVQAGGSLRLSCAASGSTLDSNAMGWYRQAPGKERELVAGIDWSGGSTYADSVKGRFTISRDNAKNTVYLQMNSLKPEDTAVYYCAKVSRYVQPYSRFDYWGQGTQVTVSS”, the “polyreactivity (PSR sort gate)” value is given as “low polyreactivity”.
Turning to “QVQLVESGGGLVQAGGSLRLSCAASGSTLDYNAMGWYRQATGKERELVAAINWSGGRTYYADSVKGRFTISRDNAKNTVYLQMNSLKPEDTAVYFCAAVDYKAKGYGYWGQGTQVTVSS”, the “polyreactivity (PSR sort gate)” value is “high polyreactivity”.
The value for “QVQLVESGGGLVQAGGSLRLSCAASGSTLEPNAMGWYRQAPGKERELVAAITIGGSTYYADSVKGRFTISRDNAKNTVYLQMNSLKPEDTSVYYCARRVSRYSWRNYWGQGTQVTVSS” was “high polyreactivity”; that for “QVQLVESGGGLVQAGGSLRLSCAASGSTLERYTMGWYRQAPGKERELVAAIRWSGTSTYYADSVKGRFTISRDNAKNTVYLQMKSLKPEDTAVYYCARVGFSRYYRTMYYWGQGTQVTVSS” was “high polyreactivity”; that for “QVQLVESGGGLVQAGGSLRLSCAASGSTLFIYAMGWYRQAPGKEREFVAGISYSGGSTYYADSVKGRFTISRDNAKNTVYLQMNSLKPEDTAVYYCAARTFSKPLTYRPYSGLFYYWGQGTQVTVSS” was “high polyreactivity”.
The value for “QVQLVESGGGLVQAGGSLRLSCAASGSTLFLYAMGWYRQAPGKERELVAAITWSGGSTYYADSVKGRFTISRDNAKKTVYLQMNSLKPEDTAVYYCAKYGRYFWNSGVDYWGQGTQVTVSS” was “high polyreactivity”; that for “QVQLVESGGGLVQAGGSLRLSCAASGSTLFSYAMGWYRQAPGKEREFVAAISRRGGSTYYEDSVKGRFTISRDYAKNTVYLQMNSLKPEETAVYYCAARDSSYNWYGYWGQGTQVTVSW” was “high polyreactivity”; that for “QVQLVESGGGLVQAGGSLRLSCAASGSTLFYNDMGWYRQAPGKEREFVAAIRSNDGSTYYADSVKGRFTISRDNAKNTVYLQMKSLKPEDTAVYYCNKDVWDGYDWPEFDYWGQGTQVTVSS” was “low polyreactivity”.
For the sequence “QVQLVESGGGLVQAGGSLRLSCAASGSTLGGSVMGWSRQAPGKERELVASITYSGGSTRYADSVKGRFTISRDNAKNTVYLQMNSLKPEDTAVYYCAAGAQRTYYTYSFRRVGYDYDYWGQGTQVTVSS”, the “polyreactivity (PSR sort gate)” value was “low polyreactivity”.
Take “QVQLVESGGGLVQAGGSLRLSCAASGSTLGHNAMGWYRQAPGKERELVAAITSSGGRTYYADSVKGRFTISRDNAKNTVYLQMYSLKPEDTAVYYCAAKLHGYYDVFGQSHRTYDYWGQGTQVTVSS”: the “polyreactivity (PSR sort gate)” value is listed as “high polyreactivity”.
For the sequence “QVQLVESGGGLVQAGGSLRLSCAASGSTLGLNAMGWYRHAPRKEREFVAAISQGGTRTYYADSVKGRLTNSRDNAKNCVYLQMNSLKPEDTAVYYCAALRHRTRAASGGDYWGQGTQVNVSS”, the “polyreactivity (PSR sort gate)” value is listed as “high polyreactivity”.
Take “QVQLVESGGGLVQAGGSLRLSCAASGSTLGPNVMGWYRQAPGKERELVAAISWRGGSTYYADSVKGRFTISRDNAKNTVYLQMNSLKPEDTAVNYGAARTTTYPYGYWGQGTQVTVSS”: the “polyreactivity (PSR sort gate)” value was “high polyreactivity”.
As for “QVQLVESGGGLVQAGGSLRLSCAASGSTLGRNAMGWYRQAPGKERELVAGIDGSAGSTYYADSVKGRFTISRDNAKNSVYLQMNSLKPEDTAVYYCNADVIDLDYDYWGQGTQVTVSS”, the “polyreactivity (PSR sort gate)” value is “low polyreactivity”.
Take “QVQLVESGGGLVQAGGSLRLSCAASGSTLGRNVMGWYRQAPGKERELVAAISSRGSRTYYADSVKGRFTISRDNAKNTVYLQMNSLKPEDTAVYYCNRGWAHSNAKFDYWGQGTQVTVSS”: the “polyreactivity (PSR sort gate)” value is on record as “high polyreactivity”.
In the case of “QVQLVESGGGLVQAGGSLRLSCAASGSTLGRYTLGWYRQAPGNERELVAAIRASGTSTYYADSVKGRFTISRDNAKNTVYLQMNSLKPEDTAVYYCNALQFGTVRLDSWGQGTQVTVSS”, the “polyreactivity (PSR sort gate)” value is “low polyreactivity”.
Regarding “QVQLVESGGGLVQAGGSLRLSCAASGSTLGSNTMGWYRQAPGKERELVATISRRGGSTYYADSVKGRFTISRDNAKNTVYLQMNSLKPEDTAVYYCAAPPVYKFTNGDYRSTFFHWGQGTQVTVSS”, the “polyreactivity (PSR sort gate)” value is listed as “high polyreactivity”.
On to “QVQLVESGGGLVQAGGSLRLSCAASGSTLGYYAMGWYRQAPGKERELVATITRSGGNTYYADSVKGRFTISRDNAKNTVYLQMNSLKPEDTAVYYCAARRLYGSQRGYWGQGTQVTVSS”, for which the “polyreactivity (PSR sort gate)” value is “high polyreactivity”.
In the case of “QVQLVESGGGLVQAGGSLRLSCAASGSTLGYYDMGWYRQAPGKERELVAAITKSGGSTYYADSVKGRFTISRDNEKNNVYLQMNSLKPEDTAVYYCAAVYVSPKPGTRYYYWGQGTQVTVSS” it was “high polyreactivity”.
“QVQLVESGGGLVQAGGSLRLSCAASGSTLGYYTMGWYRQAPGKERELVAAISGSGVTTSYADSVKGRFTISRDNAKNTVYLQMNSLKPEDTAVYYCARRYRVGTTGGDYWGQGTQVTVSS”: the “polyreactivity (PSR sort gate)” value is “high polyreactivity”.

(Values after the nanobody polyreactivity screen of Harvey et al. (2022).)
